This data set in a line: soluble on expression in E. coli; label from the status in PepcDB or PDB records.
Consider “SDLDLLDLNPRIIAAIKKAKLKSVKEVLHFSGPDLKRLTNLSSPEVWHLLRTASLHLRGSSILTALQLHQQKERFPTQHQRLSLGCPVLDALLRGGLPLDGITELAGRSSAGKTQLALQLCLAVQFPRQHGGLEAGAVYICTEDAFPHKRLQQLMAQQPRLRTDVPGELLQKLRFGSQIFIEHVADVDTLLECVNKKVPVLLSRGMARLVVIDSVAAPFRCEFDSQASAPRARHLQSLGATLRELSSAFQSPVLCINQVTEAMEEQGAAHGPLGFWDERVSPALGITWANQLLVRLLADRLREEEAALGCPARTLRVLSAPHLPPSSCSYTISAEGVRGTPGTQSH”, for which the “soluble on expression in E. coli” value was “soluble”.
As for “SDLQAAGAQAQGAAEPSRGPPLPSARGAPPSPEAGFATADHSGQERETEKAMDRLARGTQSIPNDSPARGEGTHSEEEGFAMDEEDSDGELNTWELSEGTNCPPKEQPGDLFNEDWDSELKADQGNPYDADDIQESISQELKPWVCCAPQGDMIYDPSWHHPPPLIPYYSKMVFETGQFDDAED”, the “soluble on expression in E. coli” value is recorded as “soluble”.
Turning to “SDRRTRENPERTFDLVLKVKCHASENEDPEVLWKFPEDFGDQEVLQSVPKFCFPFDVERVSQNQVGQHFTFVLTDMESKQRFGFCRLTSGGRICLCILSYLPWFEVYYKLLNTLADYLAKELEEDLNETLKSLYNHPVPKANTPVNLSVNQELFIASEQVLKDDPSLIPHSCFITPDITGLPTIPESRNLTEYFVAVDVNNMLRLYASMLHERRIIITSSKLSTVSPSHLRL”, the “soluble on expression in E. coli” value is listed as “soluble”.
For “SDSFWEPGNYKRTTKRIEDGYKLCNDLQQLIQERADIEKGYAKSLRTWSKKWGELIEKGPEYGTTEAAWKGVLTESERISDVHMKIKDNLCNDVNSQIKTWQKENYHHTLMQIKERKDLEDLFKKAQKPWAKLLAKVEKAKADYHSACKTERSATNQERNANADSSLSPDQVKKMHDRVQKTKDQVQKCREKYEQAIAEITKYNSVYIEDMTSVFEKCQTFEKTRLQFFKEILFNVHSCLDLTKVQSLPQIYEEFSHTINNADQQKDLKWWSNNHGINMAMNWPSFVEYT”, the “soluble on expression in E. coli” value is on record as “soluble”.
As for “SDTMKVETIGKEIIKPSATTPTDLSTLQLSIMDILMPPVYAVAFLFYTKDDLISQEQTSHTLKTSLSEILTKFHPLAGRVNGVTIKSTDEGAVFVEARVDNCDLSGFLRSPDTESLKQLLPVDDEPAPTWPLLLVKATYFRCGGMAIGLCISHRLADAASLSIFLQAWAATARGESDLVASPDFCSTKLYPAANEAIKIPGEVVNRTSVTKRFVFVASKIEELRNKVASDVVPRPTRVQSVTSLIWKCVVTASTDTIREKALFQPANLRTKIPSLLSENQIGNLLFNSLILDGKAGMDIVETVKELQKRAEDLSGLVQDEEGSSMTIGWRLFGEIINSKFNREDHDMHSVTSWCKIPLYDACFGWGSPVWVAGSVSPNLDYVTVLIDSKDGQGIEAWVTLPQENMLLLEQSTELLAFASPNPSVLI”, the entry is “soluble”; as for “SDYDADELAEALQPVIVNTPHLKKPIGLIGAKGEFHPVLLAETSFPVQKKLTLKQAKGDFLIGVYEGDHHIEEKTLEPIPKEENAEEDDESEWSDDEPEVVREKLYTLGTKLMELGIKNANGVEIIFNINKDGALRVTARDLKTGNAVKGEL”, “not soluble”.
With “SEERLNYIVFNQNISNMANKEVRQALSYALNRNEMIESAYGKEGSVPAKSILVPEADFYTEEGVEGYDQDTNKAKDLLDKSGVKIDKLKIGYNTGRFGHKNYALVAQQELKKIGIEAEIVPYESKAFFNILFSNSTECDMYVNGYAWGLEPNPYRGMFETGQYCNQTKYSNAEIDALWEKGFTELNKEKREEIYKQIQQDISKDAPIYTIDYEQNLMAAQKNL”, the “soluble on expression in E. coli” value is on record as “not soluble”.
As for “SEESVKPVPKHANHRRSSVRSSLYGDVRDLWSTATMSTANVSVSDVCEDFDEEGKSVRNRIRKYSQTISIRDSLNLEPEEIQQQARRELELCHGRSLEHGEDHEESETSLASSTSESLIFSLWKPHRTYWTEQQNRLPLPLMELMETEVLDILKKALITYRSTIGRNHFMTKELQGYIEGIRKRRNKRLYFLDQ”, the entry is “soluble”.
As for “SEFKVTVCFGRTRVDVPCGDGRMKVFSLIQQAVTRYRKAVAKDPNYWIQVHRLEHGDGGILDLDDILCDVADDKDRLVAVFDEQD”, the entry is “soluble”; as for “SEKNPPDDTGPVHVPLGHIVANEKWRGSQLAQEMQGKIKLIFEDGLTPDFYLSNRCCILYVTEADLVAGNGYRKRLVRVRNSNNLKGIVVVEKTRMSEQYFPALQKFTVLDLGMVLLPVASQMEASCLVIQLVQEQTKEPSKNPLLGKKRALLLSEPSLLRTVQQIPGVGKVKAPLLLQKFPSIQQLSNASIGELEQVVGQAVAQQIHAFFTQPR”, “soluble”.
Consider “SEPIAAAPQIPVSEWDNPGIKLQVAPIPRICGMPEVQDMKLITPVRRSARIERTVARYPEMLQEHDVVVASLNELLEVDKTECFIFRENEALPVTLGFEVLES”, for which the “soluble on expression in E. coli” value is given as “not soluble”.
With “SEWNLRRMESELRQINPDLLQPSKSFKKPSSGTITINVGGYLYAAQRHTLAKHPGSLLEEMVTGKKPVLHVDSMGNTFIDRDGPIFRHILNFLRLGELVLPEDFKETELLRREANFYRLSELAQALQDWEQQQATQREPAFLEVTDSHERSQGLRVYCSDNTFIEKVKNRLVQISKSRLDGFPEEFEVSSNIIQFRHFIKSEQGSRLVLKQDSTFLCTLECLKLETVMLALKGGFRLITSLDSSRGSVVQCEALHFVK”, the “soluble on expression in E. coli” value is listed as “soluble”.
For “SFSWLLRLCQKENGDEGDTRPTKKEEGILSHEKGRRKSFWRRHRSARNTSTQNSNITNQISNINKVRELKLDMRKISNDMEEMCGILNLYMYEDLNYRMNTEFNIIKSQHEKTMLDMDKMTQSIIASMKFSEELLKDNYSYSIKQKRGSVRRPARTCVSQVPRSSRCDHEIPQISDPDGSLHSSWDLGSIVSSEPD” the value was “soluble”.
With “SGKLHSKPAAVCKRRESPEGDSFAVSAAWARKGIEEWIGRQRCPGGVSGPRQLRLAGTIGRSTRELVGDVLRDTLSEEEEDDFRLEVALPPEKTDGLGSGDEKKMERVSEPCPGSKKQLKFEELQCDVSMEEDSRQEWTFTLYDFDNNGKVTREDITSLLHTIYEVVDSSVNHSPTSSKMLRVKLTVAPDGSQSKRSVLVNQADLQSARPRAETKPTEDLRSWEKKQRAPLRFQGDSRLEQSGCYHHCVDENIERRNHYLDLAGIENYTSQFGPGSPSVAQKSELPPRTSNPTRSRSHEPEAIHIPHRKPQGVDPASFHFLDTPIAKVSELQQRLRGTQDGSKHFVRSPKAQGKSVGVGHVARGARNKPPLGPAIPAVSPSAHLAASPALLPSLAPLGHKKHKHRAKESQQGCRGLQAPLASGGPVLGREHLRELPALVVYESQAGQPVQRHEHHHHHEHHHHYHHFYQT”, the “soluble on expression in E. coli” value is “not soluble”.
“SGKVILITGASRGIGLQLVKTVIEEDDECIVYGVARTEAGLQSLQREYGADKFVYRVLDITDRSRMEALVEEIRQKHGKLDGIVANAGMLEPVKSISQSNSEHDIKQWERLFDVNFFSIVSLVALCLPLLKSSPFVGNIVFVSSGASVKPYNGWSAYGCSKAALNHFAMDIASEEPSDKVRAVCIAPGVVDTQMQKDIRETLGPQGMTPKALERFTQLYKTSSLLDPKVPAAVLAQLVLKGIPDSLNGQYLRYNDERLGPVQG”: the “soluble on expression in E. coli” value is recorded as “soluble”.
As for “SGLRKMAQPSGLVEPCIVRVSYGNNVLNGLWLGDEVICPRHVIASDTTRVINYENEMSSVRLHNFSVSKNNVFLGVVSARYKGVNLVLKVNQVNPNTPEHKFKSIKAGESFNILACYEGCPGSVYGVNMRSQGTIKGSFIAGTCGSVGYVLENGILYFVYMHHLELGNGSHVGSNFEGEMYGGYEDQPSMQLEGTNVMSSDNVVAFLYAALINGERWFVTNTSMSLESYNTWAKTNSFTELSSTDAFSMLAAKTGQSVEKLLDSIVRLNKGFGGRTILSYGSLCDEFTPTEVIRQMYGVNLQ”, the entry is “soluble”.
Consider “SGSCCSCPDKDTVPDNHRNKFKVINVDDDGNELGSGIMELTDTELILYTRKRDSVKWHYLCLRRYGYDSNLFSFESGRRCQTGQGIFAFKCARAEELFNMLQEIMQNNSINVVEEPVVERNNHQTELEVPRTPRTPTTPGFAAQNLPNGYPRYPSFGDASSHPSSRHPSVGSARLPSVGEESTHPLLVAEEQVHTYVNTTGVQEERKNRTSVHVPLEARVSNAESSTPKEEPSSIEDRDPQILLEPEGVKFVLGPTPVQKQLMEKEKLEQLGRDQVSGSGANNTEWDTGYDSDERRDAPSVNKLVYENINGLSIPSASGVRRGRLTSTSTSDTQNINNSAQRRTALLNYENLPSLPPVWEARKLSRDEDDNLGPKTPSLNGYHNNLDPMHNYVNTENVTVPASAHKIEYSRRRDCTPTVFNFDIRRPSLEHRQLNYIQVDLEGGSDSDNPQTPKTPTTPLPQTPTRRTELYAVIDIERTAAMSNLQKALPRDDGTSRKTRHNSTDLPMLAWK”, for which the “soluble on expression in E. coli” value was “soluble”.
For “SGTVHARSLEPLPSSGPDFGGLGEEAEFVEVEPEAKQEILENKDVVVQHVHFDGLGRTKDDIIICEIGDVFKAKNLIEVMRKSHEAREKLLRLGIFRQVDVLIDTCQGDDALPNGLDVTFEVTELRRLTGSYNTMVGNNEGSMVLGLKLPNLLGRAEKVTFQFSYGTKETSYGLSFFKPRPGNFERNFSVNLYKVTGQFPWSSLRETDRGMSAEYSFPIWKTSHTVKWEGVWRELGCLSRTASFAVRKESGHSLKSSLSHAMVIDSRNSSILPRRGALLKVNQELAGYTGGDVSFIKEDFELQLNKQLIFDSVFSASFWGGMLVPIGDKPSSIADRFYLGGPTSVRGFSMHSIGPQSEGDYLGGEAYWAGGLHLYTPLPFRPGQGGFGELFRTHFFLNAGNLCNLNYGEGPKAHIRKLAECIRWSYGAGIVLRLGNIARLELNYCVPMGVQTGDRICDGVQFGAGIRFL” the value was “soluble”; for “SHLHPLHKNTTGYDLRHLFIGSEGTLGIITAATLKLFANPLDKATAWVGIPDIESAVRLLTETQAHFAERLCSFELIGRFAAELSSEFSKLPLPTHSEWHILLELTDSLPDSNLDDRLVEFLYKKGFTDSVLAQSEQERIHMWALRENISASQRKLGTSIKHDIAVPIGRVADFVRRCAKDLEQNFKGIQIVCFGHLGDGSLHYNTFLPEILSNEVYRYENDINSTVYRNVLACNGTIAAEHGIGIIKKQWLDKVRTPAEIALMKSIKQHLDPYNIMNPGKLLP”, “not soluble”.
“SIETTKGGSGSYPIKTIVVLVQENRSFDHTLGWFKELNREIDGVTKSDPKSNTVSSSDTNSLRVVFGDQSQYVNPDPGHSIQDIYEQVFGKPWDSGKPDPNPGHPNMSGFAQNAERNKKGMSSAVMNGFKPNALPVYKELVQNFAICDRWFASVPASTQPNRLYVHSATSHGATSNDKKLLLEGFPQKTIFESLDEAGFSFGIYYQFPPSTLFYRNLRKLKYLTHFHQYGIQFKKDCKEGKLPNYVVVEQRWFDLLSTPANDDHPSHDVSEGQKLVKEVYEALRSSPQWNEILFIITYDEHGGFYDHVPTPVDGVPNPDGILGPPPYNFEFNRLGVRVPTFFISPWIEPGTVIHGPNGPYPRSQYEHSSIPATVKTIFKLKDFLSKRDSWAGTFESVITRDSPRQDCPETLSTPIKLRGTMAKENAQLSEFQEDLVIMAAGLKGDYKNEELIHKLCKETCVADASKYVTNAFEKFLEESRKARDRGCDENDIVYCVDDDDDHVVIPPQSHSEASNAAAQPKTQTSFFNKLFSCFIRHD”: the “soluble on expression in E. coli” value is listed as “soluble”.
As for “SINVYLSLFSQGAESITTYTFNTHKAQHTFCKRCGVQSFYTPRSNPGGFGIAPHCLDEGTVRSVVTEEFNGSDWERAMKEHKTIKNMSKE”, the entry is “soluble”.
As for “SIVKMLLFQETARHSRAEGEPGASHSGSKQDKVPSSEEGTGCDASVCEAAAATHCEKDVTVSDTENVSSSKNILSHDPDVGTDTMEKEEKTHHACQEMELKVDQSSESTNPTEAELSSETRQGLQLTSGDVGIDQFLRQGDEPKSVNSDASDPGSVRLEPLTPSEVLEYEATEILHDGDDPSANTSDTVSDQTGGSPGGSNPCRAETAVDLADGEERS”, the entry is “soluble”.

(Values after the DeepSol protein solubility set.)
